Measured values as given in the nanobody polyreactivity screen of Harvey et al. (2022).

Experiment: yeast display, Sf9 membrane polyspecificity reagent, FACS + sequencing; frameworks hold sequencing errors
Method in brief: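 A nanobody's polyreactivity label depends on the gate it was sorted from. Yeast display cells were stained with 10% biotinylated, detergent-solubilized Sf9 membrane reagent for 1 hour at 4 °C, enriched on streptavidin microbeads and sorted by FACS. The low and high (top ~1%) gates were set on anti-HA fluorescence for expression and streptavidin fluorescence for reagent binding.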

With “QVQLVESGGGLVQAGGSLRLSCAPSGRIFAGYTMGWYRQAPGKERELVAAISWSGGRTYYADSVKGRFTISRDNAKNTVYLQMNSLKPEDTAVYYCAKDGRYYSHYNYWGQGTQVTVSS” the “polyreactivity (PSR sort gate)” value was “high polyreactivity”.

For “QVQLVESGGGLVQAGGSLRLSCAASGFTFNDYAMGWYRQAPGKERELVAAIDWSGGRTYYADSVKGRFTISRDNAKNTVYVQMNSLKPEDTAVYYCAAVLYSRLYWYRLDYWGQGTQVTVSS”, the “polyreactivity (PSR sort gate)” value was “low polyreactivity”.

In the case of “QVQLVESGGGLVQAGGSLRLSCAASGSIFGRNAMGWYRQAPGKERELVAAITWSGDSTYYADSVKGRFTISRDNAKNSVYLQMNSLKPEVTAVYYCAVKSYVPYLSYIYSFGYWGQGTQVTVSS”, the “polyreactivity (PSR sort gate)” value is reported as “low polyreactivity”.

For “QVQLVESGGGLVQAGGSLRFSCPASGSIFPAYARGWYRQAPGKERELVAAITRGGSTDYADSVKGRFTISRDNAKNTVYLQMNSLKPEDTAVYYCAKRGYYYYHYVSGKPEDYWGQGTQVTVSS”, the “polyreactivity (PSR sort gate)” value was “low polyreactivity”.

With “QVQLVESGGGLVQAGGSLRLSCAASGIIFGFNAMGWYRQAPGKETELVAAINGDDSTYYADSVKGRFTISRDNAKNTVYLQMNSLKPEDTAVYYCAARYYRYLTFTGELLVYYWGQGTQVTVSS” the “polyreactivity (PSR sort gate)” value was “low polyreactivity”.

With “QVQLVESGGGLVQAGRSLRLSCAASGRTSAYYAMGWYRQPPGKERELVAGITRGGRTNYADSVKGRFTISRDNAKNTVYLQLNSLKPEDTAVYYCAAKYVYYLNSRTSGYWGQGSQVTVSS” the “polyreactivity (PSR sort gate)” value was “high polyreactivity”.

In the case of “QVQLVESGGGLVQAGGSLRLSCAASGRIFWYYAMGWYRQAPGKERELVATISSGGRTNYADSVKGRCTISRDNAKNTVYLQMNSLKPEDTAVYYCAAKHPISTLYDYWGQGTQVTVSS”, the “polyreactivity (PSR sort gate)” value is reported as “high polyreactivity”.

With “QVQLVESGGGLVQAGGSLRLSCAASGSIFTGNAMGWYRQAPGKERELVASITTSTDSTYYADSVKGRFTISRDNAKNTVYLQMNSLNPEDTAVYYCAAEYAVAWKYGLYFYFHFDYWGQGTQVTVSS” the “polyreactivity (PSR sort gate)” value was “low polyreactivity”.

With “QVQLVESGGGLVQAGGSLRLSCAASGFTFRWYDMGWYRQAPGKERELVAVISRSGGRTYYADSVKGRFTISRDNAKNTVYLQMNSLKPEDTAVYYCAADWWGYDGRYDYWGQGTQVTVSS” the “polyreactivity (PSR sort gate)” value was “high polyreactivity”.

With “QVQLVESGGGLVQAGGSLRLSCADSGSIFGSYATGWYRQAPGKERELVAAITYSGTSTYYADSVKGRFTISRDTAKNTVYLQMNRLKPEDTAVYYCAKRHWFQYRRPDLGRFDYWGQGTQVTVSS” the “polyreactivity (PSR sort gate)” value was “high polyreactivity”.

With “QVQLVESGGGLVQAGGSLRLSCAASGSIFGYNAMGWYRQAPGKERELVAAISYSGGRTYYADSVKGRFTISRDNAKHTVYFQKNRLKPEDTAVYYCAKYKVGYVPSGYRYDSWGQGTQVTVSS” the “polyreactivity (PSR sort gate)” value was “high polyreactivity”.

For “QVQLVESGGGLVQAGGSLRLSCAASGFTFSDNAMGWYRQAPGKDRELVAAISRSGGNTHYADSVKGRFTISRDNAKNTVYFQMNSLKPEDTAVYYCAARVQGRGYGYYYWGQGTQVSVSS”, the “polyreactivity (PSR sort gate)” value was “high polyreactivity”.

In the case of “QVQLVESGGGLVQAGGSLRLSCAASGFTITQYGMGWYRQAPGKERELVADITYSGGDTYYADSVKGRFTISRDNAKNTVYLQMNSLKPEDTAVYFCAAYSWKYCFVWGYVYWGQGTQVTVSS”, the “polyreactivity (PSR sort gate)” value is reported as “high polyreactivity”.

With “QVQLVESGGGLVQAGGSLRLSCAASGIIFYFYAMGWDSQAPGKERELVAAISGTGGRTYYADSVKGRFTISRDNAKNTVYLQMNSLKPEDTAVYYCAADRGGLRWFWQVLYDYWGQGTQVTESS” the “polyreactivity (PSR sort gate)” value was “low polyreactivity”.

With “QVQIGESGGGLVQAGGSLRLSCAASGFIIGTNTMGWYRQAPGKERELVAAITSVGSTNYADSVKGRFTISRDNAKNTVYLQMNSLKPEDTAVYYCPATLYYQYGGDYWGQGTQVTVSS” the “polyreactivity (PSR sort gate)” value was “low polyreactivity”.

With “QVQLVESGGGLVQAGGSLRLSCAPSGSTFRLYAMGWYRQAPGKERELVAVISGSGGNTYDADSVKGRFTISRDNAKNTVELQMNSLKPEDTAVDYCAAYSYRDRDDYWGQGTQGTVSS” the “polyreactivity (PSR sort gate)” value was “high polyreactivity”.

With “QVQLVESGGGLVQAGGSLRLSCAASGFTFAYYTMGWYRQAPGKERELVAAINWSGGSTYYADSVKGRFTISRDNAKNTVYLQMNSLKPEDTAVYYSAPTCPYYNSRQGHQYDYWGQGTQVTVSS” the “polyreactivity (PSR sort gate)” value was “high polyreactivity”.
